The experiment has as its target calmodulin (CaM), recombinant bovine 1-149 (UniProt P62157). The experiment is described as follows: ITC, peptide titrated into CaM. The note with it: reference: unphosphorylated H1H2; sites S648.

The text below walks through data of PMC8009664.

In the case of “NHE1 (Na+/H+ exchanger 1, hNHE1) H1H2, 622-692 (from UniProt P19634) Akt-phosphorylated H1H2 (pS648)”, the KD entry is “weaker; reference Kd,1 0.27 ± 0.07; Kd,2 560 ± 10”.
